B1: M. tuberculosis DnaG without the zinc-binding domain (DnaGΔZBD, amino acids 115-639) (domain or fragment)
chain: SRLLAANAAAAAFYAQALQSDEAAPARQYLTERSFDAAAARKFGCGFAPSGWDSLTKHLQRKGFEFEELEAAGLSRQGRHGPMDRFHRRLLWPIRTSAGEVVGFGARRLFDDDAMEAKYVNTPETLLYKKSSVMFGIDLAKRDIAKGHQAVVVEGYTDVMAMHLAGVTTAVASCGTAFGGEHLAMLRRLMMDDSFFRGELIYVFDGDEAGRAAALKAFDGEQKLAGQSFVAVAPDGMDPCDLRLKCGDAALRDLVARRTPLFEFAIRAAIAEMDLDSAEGRVAALRRCVPMVGQIKDPTLRDEYARQLAGWVGWADVAQVIGRVRGEAKRTKHPRLGRLGSTTIARAAQRPTAGPPTELAVRPDPRDPTLWPQREALKSALQYPALAGPVFDALTVEGFTHPEYAAVRAAIDTAGGTSAGLSGAQWLDMVRQQTTSTVTSALISELGVEAIQVDDDKLPRYIAGVLARLQEVWLGRQIAEVKSKLQRMSPIEQGDEYHALFGDLVAMEAYRRSLLEQASGDDLTA

How the values were obtained:
[1] = molecular target: DnaG-binding domain of M. tuberculosis DnaB helicase (DnaBn, amino acids 23-166) (M. tuberculosis) (UniProt P9WMR3); assay: cross-linking; 4 μM DnaGΔZBD with DnaBn (0-15.9 μM), 0.045% glutaraldehyde, 40 mM HEPES pH 7.5, 150 mM NaCl, 10 mM MgCl2, 0.1 mM EDTA, 1 mM DTT, 25 min at 25 °C; SDS-PAGE, Coomassie
[2] = molecular target: the molecule itself; assay: cross-linking; 4 μM DnaGΔZBD with 0.011-0.25% glutaraldehyde, 40 mM HEPES pH 7.5, 150 mM NaCl, 1 mM DTT, 0.1 mM EDTA, 0.5% DMSO, 30 min at 25 °C; SDS-PAGE, Coomassie
[3] = molecular target: DnaG-binding domain of M. tuberculosis DnaB helicase (DnaBn, amino acids 23-166) (M. tuberculosis) (UniProt P9WMR3); assay: SPR; DnaBn (2.4 μg) immobilised on a GLC chip by amine coupling; soluble DnaGΔZBD 0-600 nM, 30 μL/min; 25 °C; 40 mM HEPES pH 7.5, 200 mM NaCl, 0.1 mM EDTA, 1 mM DTT; steady-state fit; normalised to a BSA channel; three repeats
SAXS = molecular target: the molecule itself; assay: SAXS

Molecule | stoichiometry N [1] | monomer:dimer ratio at 0.25% glutaraldehyde [2] [monomer per dimer] | Kd [3] [nM] | stoichiometry N (SAXS)
DnaG-binding domain of M. tuberculosis DnaB helicase (DnaBn, amino acids 23-166) (from UniProt P9WMR3 23-166) (domain or fragment) | 2 |  |  | 
B1 |  | ~1.5 | 210 | 2

— PMC12278352, “Characterization of DnaB–DnaG Interaction in M. tuberculosis Using Small‐Angle X‐ray Scattering‐Based Dissociation Assay” (Chembiochem, 2025)
